Experiments:
BbGSTUre2p3 = target: T1, BbGSTUre2p3 (Beauveria bassiana, UniProt J4KPJ4); experiment: GSH conjugation, absorbance at […] nm, Michaelis-Menten fit; settings: read-out: KM / μM; 4 mM GSH (saturating); ITC 25-800 µM; n = 4
T1 construct: gene BBA_03339

BbGSTUre2p2 = target: T2, BbGSTUre2p2 (Beauveria bassiana, UniProt J5JP22); experiment: as above; settings: read-out: KM / μM; 4 mM GSH (saturating); ITC 25-800 µM; n = 4
T2 construct: gene BBA_04201

BbGSTe1 = target: T3, BbGSTe1 (Beauveria bassiana, UniProt J4UX82); experiment: as above; settings: read-out: KM / μM; 4 mM GSH (saturating); ITC 25-800 µM; n = 4
T3 construct: gene BBA_00672

BbGSTN21 = target: T4, BbGSTN21 (Beauveria bassiana, UniProt J5JKP3); experiment: as above; settings: read-out: KM / μM; 4 mM GSH (saturating); ITC 25-800 µM; n = 4
T4 construct: gene BBA_07410

C=CCN=C=S = experiment: purified protein; settings: 4 mM GSH (saturating); ITC 25-800 µM; n = 4
S=C=NCCc1ccccc1 = experiment: purified protein; settings: 4 mM GSH (saturating); ITC 25-800 µM; n = 4

T2 sequence (J5JP22 entry or part of it): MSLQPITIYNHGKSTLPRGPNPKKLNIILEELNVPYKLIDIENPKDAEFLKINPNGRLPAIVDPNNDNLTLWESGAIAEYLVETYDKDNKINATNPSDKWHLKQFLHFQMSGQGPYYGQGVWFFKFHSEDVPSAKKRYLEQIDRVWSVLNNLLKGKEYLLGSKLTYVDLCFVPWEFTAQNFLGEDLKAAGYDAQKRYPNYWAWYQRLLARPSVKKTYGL
T3 sequence (J4UX82 entry or part of it): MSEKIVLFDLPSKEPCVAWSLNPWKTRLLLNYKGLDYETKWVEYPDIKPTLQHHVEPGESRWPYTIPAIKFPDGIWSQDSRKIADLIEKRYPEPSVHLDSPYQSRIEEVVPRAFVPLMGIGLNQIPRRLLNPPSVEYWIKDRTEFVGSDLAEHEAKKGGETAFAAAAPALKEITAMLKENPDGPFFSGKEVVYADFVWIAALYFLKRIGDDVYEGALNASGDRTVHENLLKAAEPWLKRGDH
T4 sequence (J5JKP3 entry or part of it): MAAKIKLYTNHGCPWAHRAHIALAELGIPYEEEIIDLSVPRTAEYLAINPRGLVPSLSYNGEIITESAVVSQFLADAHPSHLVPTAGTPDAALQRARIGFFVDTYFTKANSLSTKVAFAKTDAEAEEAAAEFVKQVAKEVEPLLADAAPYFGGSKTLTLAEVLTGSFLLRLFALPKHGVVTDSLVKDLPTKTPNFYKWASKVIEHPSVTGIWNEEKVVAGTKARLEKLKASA
T1 sequence (J4KPJ4 entry or part of it): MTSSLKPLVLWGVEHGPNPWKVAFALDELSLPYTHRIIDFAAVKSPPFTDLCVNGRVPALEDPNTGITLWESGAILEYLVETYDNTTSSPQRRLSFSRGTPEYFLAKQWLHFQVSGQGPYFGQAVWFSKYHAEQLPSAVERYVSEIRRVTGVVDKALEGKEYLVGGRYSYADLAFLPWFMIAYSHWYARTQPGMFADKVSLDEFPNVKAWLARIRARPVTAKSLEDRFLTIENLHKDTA

| Compound | Km (BbGSTUre2p3) [µM] | Km (BbGSTUre2p2) [µM] | Km (BbGSTe1) [µM] | Km (BbGSTN21) [µM] | Km (C=CCN=C=S) [µM] | Vmax (C=CCN=C=S) [µmol/min/mg] | kcat (C=CCN=C=S) [s⁻¹] | kcat/Km (C=CCN=C=S) [M⁻¹ s⁻¹] | Km (S=C=NCCc1ccccc1) [µM] | Vmax (S=C=NCCc1ccccc1) [µmol/min/mg] | kcat (S=C=NCCc1ccccc1) [s⁻¹] | kcat/Km (S=C=NCCc1ccccc1) [M⁻¹ s⁻¹] |
| --- | --- | --- | --- | --- | --- | --- | --- | --- | --- | --- | --- | --- |
| C[S+]([O-])CCCCN=C=S (stereo not drawn) [1a, 4MSOB-ITC] | 747 ± 338 | 1210 ± 890 | 1220 ± 839 | 1130 ± 578 |  |  |  |  |  |  |  |  |
| BbGSTN21 (Beauveria bassiana ARSEF 2860) |  |  |  |  | 448.48 ± 226.89 | 2.39 | 1 ± 0.24 | 2230 ± 540 | 1191.89 ± 1464.92 | 0.97 | 0.41 ± 0.36 | 340 ± 300 |
| BbGSTUre2p2 (Beauveria bassiana ARSEF 2860) |  |  |  |  | 487.23 ± 266.11 | 0.44 | 0.18 ± 0.05 | 370 ± 100 | 223.06 ± 86.81 | 0.15 | 0.06 ± 0.01 | 280 ± 50 |
| BbGSTUre2p3 (Beauveria bassiana ARSEF 2860) |  |  |  |  | 831.61 ± 572.57 | 0.59 | 0.27 ± 0.11 | 320 ± 130 | 71.76 ± 38.91 | 0.08 | 0.04 ± 0.01 | 490 ± 80 |
| BbGSTe1 (Beauveria bassiana ARSEF 2860) |  |  |  |  | 312.75 ± 100.06 | 0.41 | 0.19 ± 0.02 | 590 ± 80 | 860.76 ± 561.56 | 1.9 | 0.88 ± 0.35 | 1020 ± 410 |
